Measured values from the supplement of paper PMC12764529.
± gives the half width of the 95% confidence interval.

Experiments:
[1] = folding stability dG unfold (combined trypsin and chymotrypsin); higher = more stable
Summary of the method: (§1)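 Designed mini-proteins with no cysteine and under 80 residues were kept only if AlphaFold2 dimer inter-PAE was above 15. In a PA-tagged cDNA display construct, they were digested with trypsin and chymotrypsin and then sequenced. K50 was inferred by Bayesian fitting of counts, and unfolding free energy was derived per protease or combined against a sequence-predicted unfolded-state K50 and a shared folded-state K50.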

[2] = folding stability dG unfold from chymotrypsin proteolysis; higher = more stable
Summary of the method: as §1

[3] = folding stability dG unfold from trypsin proteolysis; higher = more stable
Summary of the method: as §1

| Sequence | folding stability dG unfold [1] [kJ/mol] | folding stability dG unfold [2] [kJ/mol] | folding stability dG unfold [3] [kJ/mol] |
| --- | --- | --- | --- |
| SAGMKPGDMRPVEIPFEIYQYDDGGPKPVAPMTIKIMVNPDEGYVMLEIENPGNGEPVIIFTLPADDISAGG [r19_413_TrROS] | 9.02 ± 0.418 | 10.1 ± 0.238 | 6.89 ± 0.23 |
| SAGMKPGEPITLVLPDGVVIPIKINPNGGVEIDDIEPPPDGTYNMDARHPNNGKEITLNIKLPPGFQILSAG [r5_394_TrROS] | 3.98 ± 1.8 | 0.999 ± 3.22 | 8.06 ± 0.544 |
| SAGMKPGETIKNAKIRITYPNGEKKELKIDDVVKIVEIDEEKGVITIELKNGEKIEIKLPPGAKIEIEPSAG [r5_762_TrROS_Hall] | 13.4 ± 2.43 | 7.67 ± 1 | 14.3 ± 1.09 |
| SAGMKPGETITIVLPDGTKIEIKILENGEVEIVKIEKKEDGTYKITIRVKVNGKEIEKEITLPPGAKILSAG [r5_394_TrROS_Hall] | 9.04 ± 1.13 | 8.54 ± 0.502 | 10.5 ± 0.46 |
| SAGMKPGEVLTVEDIPPGALLRNPKGESLGPVVEVEVRALEDSVEAVVTFPDGSKATVTFPADDIVLDPSAG [r5_850_TrMRF] | 4.13 ± 1.38 | 4.14 ± 0.879 | 4.38 ± 0.795 |
| SAGMKPIVELLKKEPNPKVILVEVFPTGGEAKIVVKDKVYVFPVKPGPGRRVLVVDPDGKILEVKPFPVSAG [r5_329_TrMRF] | 2.96 ± 0.502 | 2.97 ± 0.586 | 2.49 ± 0.628 |
| SAGMKPPKIEITIEVVEKDGELYVRVKIKLENGEEIEIVMSLDEVKELLKKLFPEITEIEVEEVRLPPKSAG [r5_25_TrROS_Hall] | 15.6 ± 2.09 | 17.1 ± 0.753 | 9.99 ± 0.502 |
| SAGMKPSPEGKTIITIDTSTGKVDVVFPDGKEFTLPFDSSSIEEIIKTIKEKLGYPPEVPFNIDEIEIASAG [r5_923_JUSTAS] | 9.66 ± 0.331 | 9.368 ± 0.0795 | 10.1 ± 0.418 |
| SAGMKTLEKTGSAAKIEEAIAAGKSLEEVFETAGKDGGTSRTLTEPNRTLTFSGETSKPGVATLTTIPESAG [r5_343_JUSTAS] | -0.0689 ± 0.628 | 1.17 ± 0.753 | -2.77 ± 2.3 |
| SAGMKTVTVKVKISEEEREKLKELGFEIVEEKEDYLVIKVKVPPELSEEELEEAKKEGMTLEEALAKLSAGG [r19_115_TrROS_Hall] | 7.27 ± 1.13 | 7.16 ± 0.322 | 8.58 ± 0.502 |
| SAGMKVIEIDVPVSKIEEVKEELEAEAKEKGLNIKFEKLEKLPGNKYKMIVTVTDPTSNEKTIYNINILSAG [r5_41_JUSTAS] | 17 ± 0.502 | 17.1 ± 0.213 | 16 ± 1.13 |
| SAGMKVTTKTYTLTLTLPDGTRELKVTFTTPPDGYTATITDPNSSKVITLPFSSEEEARSAIEAIAARLSAG [r5_480_JUSTAS] | 11 ± 0.385 | 11.3 ± 0.251 | 10.4 ± 0.151 |
| SAGMLDVPDDAEITVLVSLEKVPLPGDSSERVLAGVVKLKVKTLPNGEQVIESAEIKIVSAEELKKAGLSAG [r5_340_TrMRF] | 5.96 ± 0.711 | 6.69 ± 0.414 | 5.63 ± 0.159 |
| SAGMLNIPVDTPEKLLEIVKKLPGPVVVRSTSGTTVTVASLEELKEIAERGVPVELLLPEELPAEERAASAG [r5_677_JUSTAS] | 2.41 ± 0.28 | 3.65 ± 0.172 | 0.345 ± 0.213 |
| SAGMLSVEQLLEALKEGKEILIVAESPEERERAKRLLAEELGLSEEEIDALLKKAKIKVLPADDPELKKSAG [r5_368_TrROS_Hall] | 10.3 ± 0.837 | 11.4 ± 0.669 | 5.64 ± 0.36 |
| SAGMLTLRVVLPKEEAEARARALAEELRRRLGLPPGAKIEVKVVEYDEETGEVVVEVTIEVELPPGVEPSAG [r5_537_TrROS_Hall] | 16.7 ± 0.397 | 15.2 ± 0.213 | 17.9 ± 0.586 |
| SAGMMEIVEVKEVDGRLELKIKDKETGEEFTITVERKEDGELKVTIEMSDEAAERLRELFPEIDRLEIKSAG [r5_933_TrROS_Hall] | 12.3 ± 0.406 | 14.1 ± 0.795 | 9.18 ± 0.289 |
| SAGMMKIKITLENGEELTIEVSPEEKEKLKEGDIVEIRLEDGTVFKAEVVEVRPPGETVKIRITEAVPSAGG [r19_274_TrROS_Hall] | 10.6 ± 0.669 | 12.1 ± 0.146 | 6.99 ± 0.36 |
| SAGMMKVKIELTIVVETKEEAEKLAEELKKALEELGIKEVKVTVEYDKETKKVTVTVEIEIELEPELLSAGG [r19_92_TrROS_Hall] | 9.09 ± 0.962 | 9.08 ± 0.418 | 9.13 ± 0.879 |
| SAGMNLDNMKIKEIKLQVNPDGSVEVPFEFRFPNGKPMKVSMRVNNGMIEIYYPNGWPITIDIPPGAFSAGG [r19_84_TrROS] | 5.69 ± 0.628 | 6.18 ± 0.669 | 4.23 ± 0.628 |
| SAGMPDVPPVPRTFRLEIEIEVPAEDPELARELAEEIREEIRRLGAVRTEVEIDPEPGRVRVRVEFVEGSAG [r5_512_TrMRF] | 6.2 ± 0.18 | 6.52 ± 0.213 | 5.67 ± 0.0753 |

| Sequence | folding stability dG unfold [1] [kJ/mol] | folding stability dG unfold [2] [kJ/mol] | folding stability dG unfold [3] [kJ/mol] |
| --- | --- | --- | --- |
| SAGMPITVDSEVDPETGTTTYTITMPRGPGEPVTVTIPVTYSDDSVTIEVTASPGVDAAEIKALIEKQSSAG [r5_478_JUSTAS] | 2.5 ± 0.46 | 1.42 ± 0.92 | 2.7 ± 0.222 |
| SAGMPKPVVTPVTLPVNGALITFTVDPEVPLATFTFDEPDVNAVAEEYAKERAAELEKAGIPTKIVPSSAGG [r19_354_JUSTAS] | 2.77 ± 0.669 | 3.11 ± 0.46 | 1.25 ± 0.172 |
| SAGMPLPAEELAERLAKEIEESTDYKVSIEEIKPEGEYVIIKVRVELPEKYKDKGYEEEEFVAIFPGDLSAG [r5_970_TrMRF] | 2.94 ± 1.05 | 3.37 ± 0.669 | 2.94 ± 0.305 |
| SAGMPLSVEEAIALLRKEIEAIPVPPSVTEIEFEITIPADGRPVKITVKVNEGKLEITVTVGDKPIKIGSAG [r14_199_JUSTAS] | 9.1 ± 0.46 | 9.64 ± 0.293 | 7.49 ± 0.586 |
| SAGMPLYRIRVHPDIPDRIEITEVDAEDLPPGAVLKIRFRETGETVEVPLSDLDELLALPGIEEVELVSAGG [r19_302_TrROS_Hall] | 3.52 ± 0.502 | 4.66 ± 0.544 | 1.27 ± 0.322 |
| SAGMPPTTVEVKVTVVKTPEGYEVVAEVVTPDRTETLTIPPHLGLEEAKARLEAVLAERGLTLVDWTLESAG [r5_305_JUSTAS] | 11.1 ± 0.238 | 11.1 ± 0.172 | 11.3 ± 0.197 |
| SAGMPSVTVTPVTVTVEGTAPPDLTEEELRADPTYTRTVEIDATVTLYPETGTVTVTLPGGVTVTLPSPSAG [r5_701_JUSTAS] | 3.3 ± 0.397 | 3.89 ± 0.13 | 1.81 ± 0.314 |
| SAGMPVITTTEELPGGLTVTTTTYPPGDTTTTVTSPEGNVTTTTTTTTPTPTPTTTTTTTTTTTPVPPASAG [r5_944_JUSTAS] | 6.02 ± 1.09 | 5.27 ± 0.414 | 6.52 ± 0.586 |
| SAGMSMSVSVTKDPNSNSITIKVTMPVEPDAVLDLPIKVEVPEKEYEMTVEVTLSPDGLASMTGTITLPSAG [r5_596_JUSTAS] | 10.1 ± 0.753 | 8.53 ± 0.234 | 11.5 ± 0.628 |
| SAGMTEVAKEIADTLAEQFPPGYKIDDIKVQPLPDNMFRVPITIKRRDPNGKPRGPRQIEIWIPPEQFSAGG [r19_28_TrROS] | 2.22 ± 0.46 | 0.88 ± 0.711 | 3.16 ± 0.222 |
| SAGMTFEVRYPLPPGQTHKEAREEVKDMVESIAREFMPEGWKIEPKDIDVDPDKGWIEYKVDIEIPPGMSAG [r5_146_TrROS] | 7.19 ± 0.753 | 8.14 ± 0.502 | 4.96 ± 0.502 |
| SAGMTIEIEIPASTSAEEAVERVEAIVEEVRKAGKKFELTIKTSDPALAAAVRAALEAAGVPVTVEVDSAGG [r19_268_JUSTAS] | 13.7 ± 0.276 | 10.4 ± 0.138 | 17 ± 0.502 |
| SAGMTIIKIEFPDGSKATVDPTNPSTMTITDPNGNTTVLNLTGVEEAKKQLIETLKKETGLPVKKVEVESAG [r5_119_JUSTAS] | 4.76 ± 0.368 | 5.79 ± 0.205 | 2.06 ± 0.188 |
| SAGMTIILVGPNAKEAVEKVAEELRKRDVGPPVTVLVLEPGGKPVLRARVERRPPDPDRFVVTVEPVESAGG [r19_85_TrMRF] | 5.31 ± 0.41 | 5.88 ± 0.46 | 2.88 ± 0.331 |
| SAGMTITIPAPPSLSPEEAVALAIERVKEEYPELLTPGSEVNIVVIREDPATGTSQTLTVTVPFPEGIFSAG [r5_916_JUSTAS] | 7.49 ± 0.36 | 6.58 ± 0.184 | 8.26 ± 0.188 |
| SAGMTITTTTPAEAAALAEELAKKNPVLNVTITVVDPETGTVTTIPFAVPAPLPRPYFDPETGEVTLEGSAG [r5_870_TrMRF] | 3.26 ± 0.46 | 0.808 ± 0.753 | 4.62 ± 0.138 |
| SAGMTITVKPGEKVKVTIKVEVFDENGKLIKKEEKEVEITVKEGDEITIKIKLDKPVKVKIEIKIEKKSAGG [r19_295_TrROS_Hall] | 9.57 ± 1.05 | 8.41 ± 0.628 | 11.2 ± 0.711 |
| SAGMTIVIGAPPELSLEEAVEKAIEAVEALFPDKLKPGSKIKVIVRVYDPETGSVDEVTVEIDVPPGALSAG [r5_916_TrMRF] | 11.1 ± 0.418 | 8.31 ± 0.46 | 14 ± 0.92 |
| SAGMTIVVEVPKKDITPEELAKKLEERFGLKVVEIKVEEVEEDKVRVTIRFEETGETLELTAEEIKELLSAG [r5_550_TrROS_Hall] | 17.5 ± 0.669 | 15.9 ± 0.711 | 19.3 ± 1.42 |
| SAGMTLKEEEFELPDGSRRIRLTFTSEEELAAKLKELGFEKFNPLSPSESVDVTIPPDGVLSESLPKEGSAG [r5_941_JUSTAS] | 5.94 ± 0.46 | 7.79 ± 0.276 | 2.72 ± 0.255 |
| SAGMTLTLELPVPPDMSEEEARALALARVREEVAALSPGGATVTPVAVSVDPETGTVSLEVEVEVPPLASAG [r5_146_JUSTAS] | 5.65 ± 0.155 | 6.06 ± 0.176 | 4.89 ± 0.134 |
